From paper PMC6937306
Where “and” joins values, the source holds several entries; their conditions need not be identical. Identical values can stand only once. Blank lines part the entries; values can stand above or below the substance they belong to.

How the values were obtained:
[1] = target: RAGE V_C1_C2 (extracellular part of RAGE) (human); assay: native MS; about 10 uM protein; 100 mM ammonium acetate for V_C1 and C2, 500 mM for V_C1_C2; nano-ESI
[2] = target: RAGE V_C1_C2 (extracellular part of RAGE) (human); assay: AUC; sedimentation velocity, 20 C, 40,000 rpm, 25 mM Tris pH 7.5, 200 mM NaCl, absorbance 280 nm; c(s) distribution (bimodal f/f0 for C2)
[3] = target: RAGE C2_TM_CT Mutant 1 (four glycines in the region of the GxxxG motif mutated to alanine) (human); assay: SEC-MALS; Superdex 200 Increase 10/300, 25 mM Tris-Cl, 0.2 M NaCl, pH 8.0, with 2x CMC DDM, room temperature; 'protein conjugate' analysis (ASTRA) of protein and detergent masses
[4] = target: RAGE C2 domain (human); assay: native MS; about 10 uM protein; 100 mM ammonium acetate for V_C1 and C2, 500 mM for V_C1_C2; nano-ESI
[5] = target: RAGE C2 domain (human); assay: ESI-MS under denaturing conditions; 50% acetonitrile and 0.1% formic acid added to the protein sample
[6] = target: RAGE C2 domain (human); assay: AUC; sedimentation velocity, 20 C, 40,000 rpm, 25 mM Tris pH 7.5, 200 mM NaCl, absorbance 280 nm; c(s) distribution (bimodal f/f0 for C2)
[7] = target: RAGE C2 domain (human); assay: SEC-MALS; Superdex 200 Increase 10/300, 25 mM Tris-Cl, 0.2 M NaCl, pH 8.0, room temperature, no detergent; C2 fractions re-chromatographed separately
[8] = target: RAGE C2_TM_CT (C2 domain, transmembrane region and cytoplasmic tail) (human); assay: ESI-MS under denaturing conditions; 50% acetonitrile and 0.1% formic acid added to the protein sample
[9] = target: RAGE C2_TM_CT (C2 domain, transmembrane region and cytoplasmic tail) (human); assay: SEC-MALS; Superdex 200 Increase 10/300, 25 mM Tris-Cl, 0.2 M NaCl, pH 8.0, with 2x CMC DDM, room temperature; 'protein conjugate' analysis (ASTRA) of protein and detergent masses
[10] = target: RAGE C2_TM_CT Mutant 2 (six amino acids that cover the GxxxG motif deleted) (human); assay: as above
[11] = target: RAGE V_C1 (V and C1 domains) (human); assay: native MS; about 10 uM protein; 100 mM ammonium acetate for V_C1 and C2, 500 mM for V_C1_C2; nano-ESI
[12] = target: full-length RAGE (receptor for advanced glycation end-products) (human) (UniProt Q15109); assay: native MS; FL_RAGE about 10 uM in 600 mM ammonium acetate with 0.04% (2x CMC) Triton X-100; nano-ESI, collisional release from the micelle
[13] = target: full-length RAGE (receptor for advanced glycation end-products) (human) (UniProt Q15109); assay: AUC; sedimentation velocity, 20 C, 42,000 rpm, 25 mM Tris pH 7.5, 200 mM NaCl with DDM; absorbance 280 nm and interference; f/fo analysis with the GUSSI Membrane Protein module for FL_RAGE

fraction of dimers [1]: 11%
stoichiometry N [1]: 2
percent of the signal in the dimer peak [2]: 17%
stoichiometry N [2]: 2
Substance: RAGE V_C1_C2 (extracellular part of RAGE) (domain or fragment)

stoichiometry N [3]: 2 and 3
Substance: RAGE C2_TM_CT Mutant 1 (four glycines in the region of the GxxxG motif mutated to alanine) (domain or fragment)

fraction of dimeric signals [4]: 33%
stoichiometry N [4]: 2
fraction of dimeric peaks under denaturing conditions [5]: 27%
stoichiometry N [5]: 2
percent of the total signal in the dimer [6]: > 65%
stoichiometry N [6]: 2
stoichiometry N [7]: 2
Substance: RAGE C2 domain (domain or fragment)

stoichiometry N [8]: 2 and 4 and 6
stoichiometry N [9]: 2
Substance: RAGE C2_TM_CT (C2 domain, transmembrane region and cytoplasmic tail) (domain or fragment)

stoichiometry N [10]: 2
Substance: RAGE C2_TM_CT Mutant 2 (six amino acids that cover the GxxxG motif deleted) (domain or fragment)

fraction of dimeric signals [11]: 12%
stoichiometry N [11]: 2
Substance: RAGE V_C1 (V and C1 domains) (domain or fragment)

stoichiometry N [12]: 2 and 3 and 4
stoichiometry N [13]: 2 and 3
Substance: full-length RAGE (receptor for advanced glycation end-products) (from UniProt Q15109 23-404)
